pEC50, pKd: −log10 of the molar value.

The values that follow come from patent publication US20250313631A1.

For assay [1], the target named is recombinant rat VISTA (His-tagged) (rat). The experiment in a line: ELISA, plate coated with rat VISTA.
The target of assay [2] is recombinant cynomolgus macaque VISTA (His-tagged) (cynomolgus macaque). The experiment in a line: ELISA, plate coated with cyno VISTA.
The target of assay [3] is recombinant human VISTA (His-tagged) (human) (UniProt Q9H7M9). The experiment in a line: ELISA, plate coated with human VISTA.
The target of assay [4] is recombinant mouse VISTA (His-tagged) (mouse) (UniProt Q9D659). The experiment in a line: ELISA, plate coated with mouse VISTA.
Assay [5] addresses recombinant human VISTA (His-tagged) (human) (UniProt Q9H7M9). The experiment in a line: ELISA, plate coated with human VISTA; unit nM from the legend paragraph 697.
Assay [6] concerns the target recombinant mouse VISTA (His-tagged) (mouse) (UniProt Q9D659). The experiment in a line: ELISA, plate coated with mouse VISTA; unit nM from the legend paragraph 697.
For assay [7], the target named is recombinant human VISTA (His-tagged) (human) (UniProt Q9H7M9). The experiment in a line: ELISA, plate coated with human VISTA; unit nM from the legend paragraph 698.
Assay [8] concerns the target recombinant mouse VISTA (His-tagged) (mouse) (UniProt Q9D659). The experiment in a line: ELISA, plate coated with mouse VISTA; unit nM from the legend paragraph 698.
The target in assay [9] is recombinant human VISTA (His-tagged) (human) (UniProt Q9H7M9). The experiment in a line: ELISA, plate coated with human VISTA; unit nM from the legend paragraph 699.
The target in assay [10] is recombinant mouse VISTA (His-tagged) (mouse) (UniProt Q9D659). The experiment in a line: ELISA, plate coated with mouse VISTA; unit nM from the legend paragraph 699.
Assay [11] concerns the target human VISTA expressed on cells (human) (UniProt Q9H7M9). The experiment in a line: flow cytometry, FITC-A; HEK293 VISTA O/E cells (unstained cells: MFI 0.12).
Assay [12] deals with human FcγRIII (CD16a) (human) (UniProt P08637). The experiment in a line: ELISA, plate coated with human CD16a (FcγRIII), detection with HRP anti-human Fc antibody.
The target of another assay is Fc-tagged VSIG-3 (UniProt Q5DX21). The experiment in a line: BLI, 100 nM Fc-tagged VSIG-3 on anti-human Fc biosensor, VISTA as analyte from 3000 nM.

Chain of recombinant mouse VISTA (His-tagged) (mouse) (Q9D659 33-191 limits assumed): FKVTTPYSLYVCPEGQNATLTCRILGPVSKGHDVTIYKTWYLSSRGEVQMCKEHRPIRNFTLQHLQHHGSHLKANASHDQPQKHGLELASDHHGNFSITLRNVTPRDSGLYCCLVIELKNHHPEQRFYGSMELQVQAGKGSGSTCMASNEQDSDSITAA
Chain of human FcγRIII (CD16a) (human) (P08637 17-208 limits assumed): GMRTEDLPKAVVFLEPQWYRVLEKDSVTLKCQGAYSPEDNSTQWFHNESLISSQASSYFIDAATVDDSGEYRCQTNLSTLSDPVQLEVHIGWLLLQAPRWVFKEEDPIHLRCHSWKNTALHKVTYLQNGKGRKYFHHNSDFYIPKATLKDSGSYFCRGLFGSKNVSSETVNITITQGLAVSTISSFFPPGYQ

As for Human isotype (antibody), the pEC50 was less than 7.48 in assay [1]; less than 7.48 in [2]; less than 7.48 in assay [3]; less than 7.48 in assay [4]; 6.82 in assay [5]; 7.11 in [6]. In addition, the pEC50 in assay [7] is less than 6.70; in assay [8], less than 6.70; in assay [9], 7.01; in assay [10], less than 6.70.
In turn, Isotype (antibody) came in with an MFI in [11] of 0.06.
With hIgG1 Isotype Control (antibody), the 50% effective concentration (EC50 (read off the curve)) in [12] worked out at 1 nM. That is a single-digit nanomolar value.
Turning to “recombinant human VISTA (His-tagged) (from UniProt Q9H7M9 33-194) (receptor)”, in the assay with Fc-tagged VSIG-3, the pKd was 5.28.
